Laboratory results as given in patent EP4365197A1 (Innobation Bio Co., Ltd., dated 2024).

Assays:
[1] = target: CD47 on the CD47-overexpressing breast cancer cell line MCF-7 (UniProt Q08722); experiment: flow cytometry on MCF-7 cells, secondary antibody alone (background control)
[2] = target: CD47 protein (Acrobiosystems, cat#CD7-HA2E9) (UniProt Q08722); experiment: ELISA, CD47 protein coated 100 ng/well, 0.8 µg antibody per well
[3] = target: T1, CD47 on the CD47-overexpressing breast cancer cell line MCF-7 (UniProt Q08722 19-323, limits assumed); experiment: flow cytometry on MCF-7 cells, 1 µg antibody
T1 construct: whole, on cells; Endogenous CD47 on MCF-7 cells; The positive control used on these cells is an anti-human CD47 antibody; also called CD47 overexpressing tumor cells (MCF-7); MCF-7 cells expressing CD47
T1 sequence (Q08722 19-323 limits assumed): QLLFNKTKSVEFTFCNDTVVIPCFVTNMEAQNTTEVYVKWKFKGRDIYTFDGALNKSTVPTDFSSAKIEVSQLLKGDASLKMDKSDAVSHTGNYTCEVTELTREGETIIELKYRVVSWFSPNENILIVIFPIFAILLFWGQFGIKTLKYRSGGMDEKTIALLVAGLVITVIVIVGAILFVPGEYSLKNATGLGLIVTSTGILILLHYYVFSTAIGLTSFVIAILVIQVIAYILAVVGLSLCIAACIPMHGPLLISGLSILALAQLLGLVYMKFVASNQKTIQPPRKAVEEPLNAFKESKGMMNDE

CD47 protein (Acrobiosystems, cat#CD7-HA2E9), sequence (Q08722 19-139 limits assumed): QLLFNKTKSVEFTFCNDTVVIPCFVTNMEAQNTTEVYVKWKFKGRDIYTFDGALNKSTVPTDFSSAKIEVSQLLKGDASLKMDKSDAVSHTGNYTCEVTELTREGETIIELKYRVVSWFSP
CD47 on the CD47-overexpressing breast cancer cell line MCF-7 (UniProt Q08722), sequence (Q08722 19-323 limits assumed): as the sequence (Q08722 19-323 limits assumed) above

Row | Mean (fluorescence) [1] | Median (fluorescence) [1] | OD450 measurements [2] [OD450] | binding result [3] | Molecule
1 | 80 | 73.9 | – | – | PE-conjugated goat anti-mouse IgG antibody (Biolegend Inc., cat# 405307)
2 | – | – | 2.58 | binds | Hu3A5 (V1) antibody (antibody, V domains shown, Humanized 3A5) VH: EVQLVQSGAEVKKPGASVKVSCKASGYTFTSYWMHWMRQAPGQGLEWIGVIDPSDSYTSYNQKFQGRVTLTVDTSTSTAYMELSSLRSEDTAVYYCARGGKRAMDYWGQGTTVTVSS VL: DVVMTQSPLSLPVTLGQPASISCRSSQSLVHSNGNTYLHWFQQRPGQSPRLLIYKVSNRFSGVPDRFSGSGSGTDFTLKISRVEAEDVGVYFCSQSTHVPFTFGGGTKLEIK
3 | – | – | 2.81 | – | Hu3A5 (V10) antibody (antibody, V domains shown) VH: EVQLVQSGSELKKPGASVKVSCKASGYTFTSYWMHWMRQAPGQGLEWIGVIDPSDSYTSYNQGFTGRFVLSVDTSVSTAYLQISSLKAEDTAVYYCARGGKRAMDYWGQGTTVTVSS VL: DVVMTQSPLSLPVTLGQPASISCRSSQSLVHSNGNTYLHWFQQRPGQSPRLLIYKVSNRFSGVPDRFSGSGSGTDFTLKISRVEAEDVGVYYCSQSTHVPFTFGGGTKLEIK
4 | – | – | 2.65 | binds | Hu3A5 (V9) antibody (antibody, V domains shown, Humanized 3A5) VH: EVQLVQSGSELKKPGASVKVSCKASGYTFTSYWMHWMRQAPGQGLEWIGVIDPSDSYTSYNQGFTGRFVLSVDTSVSTAYLQISSLKAEDTAVYYCARGGKRAMDYWGQGTTVTVSS VL: DVVMTQSPLSLPVTLGQPASISCRSSQSLVHSNGNTYLHWFQQRPGQSPRLLIYKVSNRFSGVPDRFSGSGSGTDFTLKISRVEAEDVGVYFCSQSTHVPFTFGGGTKLEIK
5 | – | – | 2.54 | binds | Hu3A5 (V3) antibody (antibody, V domains shown, Humanized 3A5) VH: EVQLVQSGAEVKKPGASVKVSCKASGYTFTSYWMHWMRQAPGQGLEWIGVIDPSDSYTSYNQKFQGRVTLTVDTSTSTAYMELSSLRSEDTAVYYCARGGKRAMDYWGQGTTVTVSS VL: DVVMTQSPDSLAVSLGERATINCKSSQSLVHSNGNTYLHWYQQKPGQPPKLLIYKVSNRFSGVPDRFSGSGSGTDFTLTISSLQAEDVAVYFCSQSTHVPFTFGGGTKLEIK
6 | – | – | 2.67 | binds | Hu3A5 (V7) antibody (antibody, V domains shown, Humanized 3A5) VH: QVQLVQSGAEVKKPGASVKVSCKASGYTFTSYWMHWVRQAPGQGLEWMGVIDPSDSYTSYNQKFQGRVTMTVDTSTSTAYMELSSLRSEDTAVYYCARGGKRAMDYWGQGTTVTVSS VL: DVVMTQSPDSLAVSLGERATINCKSSQSLVHSNGNTYLHWYQQKPGQPPKLLIYKVSNRFSGVPDRFSGSGSGTDFTLTISSLQAEDVAVYFCSQSTHVPFTFGGGTKLEIK
7 | – | – | 2.57 | binds | Hu3A5 (V5) antibody (antibody, V domains shown, Humanized 3A5) VH: QVQLVQSGAEVKKPGASVKVSCKASGYTFTSYWMHWVRQAPGQGLEWMGVIDPSDSYTSYNQKFQGRVTMTVDTSTSTAYMELSSLRSEDTAVYYCARGGKRAMDYWGQGTTVTVSS VL: DVVMTQSPLSLPVTLGQPASISCRSSQSLVHSNGNTYLHWFQQRPGQSPRLLIYKVSNRFSGVPDRFSGSGSGTDFTLKISRVEAEDVGVYFCSQSTHVPFTFGGGTKLEIK
8 | – | – | 2.74 | binds | Hu3A5 (V4) antibody (antibody, V domains shown, Humanized 3A5) VH: EVQLVQSGAEVKKPGASVKVSCKASGYTFTSYWMHWMRQAPGQGLEWIGVIDPSDSYTSYNQKFQGRVTLTVDTSTSTAYMELSSLRSEDTAVYYCARGGKRAMDYWGQGTTVTVSS VL: DVVMTQSPDSLAVSLGERATINCKSSQSLVHSNGNTYLHWYQQKPGQPPKLLIYKVSNRFSGVPDRFSGSGSGTDFTLTISSLQAEDVAVYYCSQSTHVPFTFGGGTKLEIK
9 | – | – | 0.0966 | binds | Hu3A5 (V13) antibody (antibody, V domains shown, Humanized 3A5) VH: QVQLVQSGSELKKPGASVKVSCKASGYTFTSYWMNWVRQAPGQGLEWMGVIDPSDSYTSYNQGFTGRFVFSVDTSVSTAYLQISSLKAEDTAVYYCARGGKRAMDYWGQGTTVTVSS VL: DVVMTQSPLSLPVTLGQPASISCRSSQSLVHSNGNTYLHWFQQRPGQSPRLLIYKVSNRFSGVPDRFSGSGSGTDFTLKISRVEAEDVGVYFCSQSTHVPFTFGGGTKLEIK
10 | – | – | 2.45 | binds | Hu3A5 (V8) antibody (antibody, V domains shown, Humanized 3A5) VH: QVQLVQSGAEVKKPGASVKVSCKASGYTFTSYWMHWVRQAPGQGLEWMGVIDPSDSYTSYNQKFQGRVTMTVDTSTSTAYMELSSLRSEDTAVYYCARGGKRAMDYWGQGTTVTVSS VL: DVVMTQSPDSLAVSLGERATINCKSSQSLVHSNGNTYLHWYQQKPGQPPKLLIYKVSNRFSGVPDRFSGSGSGTDFTLTISSLQAEDVAVYYCSQSTHVPFTFGGGTKLEIK
11 | – | – | 0.147 | binds | Hu3A5 (V14) antibody (antibody, V domains shown, Humanized 3A5) VH: QVQLVQSGSELKKPGASVKVSCKASGYTFTSYWMNWVRQAPGQGLEWMGVIDPSDSYTSYNQGFTGRFVFSVDTSVSTAYLQISSLKAEDTAVYYCARGGKRAMDYWGQGTTVTVSS VL: DVVMTQSPLSLPVTLGQPASISCRSSQSLVHSNGNTYLHWFQQRPGQSPRLLIYKVSNRFSGVPDRFSGSGSGTDFTLKISRVEAEDVGVYYCSQSTHVPFTFGGGTKLEIK
12 | – | – | 2.62 | binds | Hu3A5 (V6) antibody (antibody, V domains shown, Humanized 3A5) VH: QVQLVQSGAEVKKPGASVKVSCKASGYTFTSYWMHWVRQAPGQGLEWMGVIDPSDSYTSYNQKFQGRVTMTVDTSTSTAYMELSSLRSEDTAVYYCARGGKRAMDYWGQGTTVTVSS VL: DVVMTQSPLSLPVTLGQPASISCRSSQSLVHSNGNTYLHWFQQRPGQSPRLLIYKVSNRFSGVPDRFSGSGSGTDFTLKISRVEAEDVGVYYCSQSTHVPFTFGGGTKLEIK
13 | – | – | 2.69 | binds | Hu3A5 (V2) antibody (antibody, V domains shown, Humanized 3A5) VH: EVQLVQSGAEVKKPGASVKVSCKASGYTFTSYWMHWMRQAPGQGLEWIGVIDPSDSYTSYNQKFQGRVTLTVDTSTSTAYMELSSLRSEDTAVYYCARGGKRAMDYWGQGTTVTVSS VL: DVVMTQSPLSLPVTLGQPASISCRSSQSLVHSNGNTYLHWFQQRPGQSPRLLIYKVSNRFSGVPDRFSGSGSGTDFTLKISRVEAEDVGVYYCSQSTHVPFTFGGGTKLEIK
14 | – | – | 2.81 | binds | Hu3A5 (V11) antibody (antibody, V domains shown, Humanized 3A5) VH: EVQLVQSGSELKKPGASVKVSCKASGYTFTSYWMHWMRQAPGQGLEWIGVIDPSDSYTSYNQGFTGRFVLSVDTSVSTAYLQISSLKAEDTAVYYCARGGKRAMDYWGQGTTVTVSS VL: DVVMTQSPDSLAVSLGERATINCKSSQSLVHSNGNTYLHWYQQKPGQPPKLLIYKVSNRFSGVPDRFSGSGSGTDFTLTISSLQAEDVAVYFCSQSTHVPFTFGGGTKLEIK
15 | – | – | 0.106 | binds | Hu3A5 (V16) antibody (antibody, V domains shown, Humanized 3A5) VH: QVQLVQSGSELKKPGASVKVSCKASGYTFTSYWMNWVRQAPGQGLEWMGVIDPSDSYTSYNQGFTGRFVFSVDTSVSTAYLQISSLKAEDTAVYYCARGGKRAMDYWGQGTTVTVSS VL: DVVMTQSPDSLAVSLGERATINCKSSQSLVHSNGNTYLHWYQQKPGQPPKLLIYKVSNRFSGVPDRFSGSGSGTDFTLTISSLQAEDVAVYYCSQSTHVPFTFGGGTKLEIK
16 | – | – | 0.111 | binds | Hu3A5 (V15) antibody (antibody, V domains shown, Humanized 3A5) VH: QVQLVQSGSELKKPGASVKVSCKASGYTFTSYWMNWVRQAPGQGLEWMGVIDPSDSYTSYNQGFTGRFVFSVDTSVSTAYLQISSLKAEDTAVYYCARGGKRAMDYWGQGTTVTVSS VL: DVVMTQSPDSLAVSLGERATINCKSSQSLVHSNGNTYLHWYQQKPGQPPKLLIYKVSNRFSGVPDRFSGSGSGTDFTLTISSLQAEDVAVYFCSQSTHVPFTFGGGTKLEIK
17 | – | – | 2.85 | binds | Hu3A5 (V12) antibody (antibody, V domains shown, Humanized 3A5) VH: EVQLVQSGSELKKPGASVKVSCKASGYTFTSYWMHWMRQAPGQGLEWIGVIDPSDSYTSYNQGFTGRFVLSVDTSVSTAYLQISSLKAEDTAVYYCARGGKRAMDYWGQGTTVTVSS VL: DVVMTQSPDSLAVSLGERATINCKSSQSLVHSNGNTYLHWYQQKPGQPPKLLIYKVSNRFSGVPDRFSGSGSGTDFTLTISSLQAEDVAVYYCSQSTHVPFTFGGGTKLEIK
